According to paper PMC2917178 (Biochemistry, 2010):

Target: H3-H4 (Xenopus laevis, UniProt P84233 1-136; P62799 1-103)
Experiment: SEC

binding result: binds
B1: co-purified Rtt109-Vps75 complex (complex)
chain 1: MSLNDFLSSVLPVSEQFEYLSLQSIPLETHAVVTPNKDDKRVPKSTIKTQHFFSLFHQGKVFFSLEVYVYVTLWDEADAERLIFVSKADTNGYCNTRVSVRDITKIILEFILSIDPNYYLQKVKPAIRSYKKISPELISAASTPARTLRILARRLKQSGSTVLKEIESPRFQQDLYLSFTCPREILTKICLFTRPASQYLFPDSSKNSKKHILNGEELMKWWGFILDRLLIECFQNDTQAKLRIPGEDPARVRSYLRGMKYPLWQVGDIFTSKENSLAVYNIPLFPDDPKARFIHQLAEEDRLLKVSLSSFWIELQERQEFKLSVTSSVMGISGYSLATPSLFPSSADVIVPKSRKQFRAIKKYITGEEYDTEEGAIEAFTNIRDFLLLRMATNLQSLTGKREHRERNQPVPASNINTLAITMLKPRKKAKALPKT
chain 2: MMSDQENENEHAKAFLGLAKCEEEVDAIEREVELYRLNKMKPVYEKRDAYIDEIAEFWKIVLSQHVSFANYIRASDFKYIDTIDKIKVEWLALESEMYDTRDFSITFHFHGIEGDFKEQQVTKVFQIKKGKDDQEDGILTSEPVPIEWPQSYDSINPDLIKDKRSPEGKKKYRQGMKTIFGWFRWTGLKPGKEFPHGDSLASLFSEEIYPFCVKYYAEAQRDLEDEEGESGLSADGDSEDDDGSLGEVDLPLSDEEPSSKKRKV
modifications: acetyl-lysine at K290 (wildtype Rtt109 used is fully acetylated at K290, unpublished data)
